Test results reported in US20240366624.
Where a chain is given by its changes, count along the chain named.

B1: recombinant human ERO1α (endoplasmic reticulum oxidoreductase 1α), wild type (protein)
chain: EEQPPETAAQRCFCQVSGYLDDCTCDVETIDRFNNYRLFPRLQKLLESDYFRYYKVNLKRPCPFWNDISQCGRRDCAVKPCQSDEVPDGIKSASYKYSEEANNLIEECEQAERLGAVDESLSEETQKAVLQWTKHDDSSDNFCEADDIQSPEAEYVDLLLNPERYTGYKGPDAWKIWNVIYEENCFKPQTIKRPLNPLASGQGTSEENTFYSWLEGLCVEKRAFYRLISGLHASINVHLSARYLLQETWLEKKWGHNITEFQQRFDGILTEGEGPRRLKNLYFLYLIELRALSKVLPFFERPDFQLFTGNKIQDEENKMLLLEILHEIKSFPLHFDENSFFAGDKKEAHKLKEDFRLHFRNISRIMDCVGCFKCRLWGKLQTQGLGTALKILFSEKLIANMPESGPSYEFHLTRQEIVSLFNAFGRISTSVKELENFRNLLQNIH
B2: activity-null mutant ERO1α-Cys94Ser (protein)
chain: B1 chain with C71S

Target: wild type STIM1, recombinant, Q13586
Sequence (Q13586 23-213): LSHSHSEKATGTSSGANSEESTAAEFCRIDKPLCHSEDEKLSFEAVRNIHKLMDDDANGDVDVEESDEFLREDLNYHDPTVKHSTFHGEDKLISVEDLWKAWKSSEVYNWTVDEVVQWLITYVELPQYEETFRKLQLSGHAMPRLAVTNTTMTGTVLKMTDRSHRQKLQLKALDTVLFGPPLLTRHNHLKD

Row | Protein | N-ethylmaleimide labeling on the Cys49 residue in STIM1 (mass spectrometry)
1 | B1 | wtERO1α, but not mERO1α, decreased N-ethylmaleimide labeling on the Cys49 residue in STIM1 in a concentration-dependent manner
2 | B2 | wtERO1α, but not mERO1α, decreased N-ethylmaleimide labeling on the Cys49 residue in STIM1
